What was measured:
H-Gln-Glu-Tyr-NH2 = tested on: T1, H-Gln-Glu-Tyr-NH2
T1 sequence: QEY

H-Gln-Gly-Pro-OH = tested on: T2, H-Gln-Gly-Pro-OH
T2 sequence: QGP

H-Gln-Phe-Ala-NH2 = tested on: T3, H-Gln-Phe-Ala-NH2
T3 sequence: QFA

H-Gln-Ala-NH2 = tested on: T4, H-Gln-Ala-NH2
T4 sequence: QA

[Gln^1]-GnRH = tested on: T5, [Gln^1]-GnRH
T5 sequence: QHWSYGLRPG

H-Gln-Glu-Tyr-Phe-NH2 = tested on: T6, H-Gln-Glu-Tyr-Phe-NH2
T6 sequence: QEYF

H-Gln-His-Tyr-Phe-NH2 = tested on: T7, H-Gln-His-Tyr-Phe-NH2
T7 sequence: QHYF

H-Gln-Asn-Gly-Ile-NH2 = tested on: T8, H-Gln-Asn-Gly-Ile-NH2
T8 sequence: QNGI

H-Gln-Glu-Asp-Leu-NH2 = tested on: T9, H-Gln-Glu-Asp-Leu-NH2
T9 sequence: QEDL

H-Gln-Glu-Ala-Ala-NH2 = tested on: T10, H-Gln-Glu-Ala-Ala-NH2
T10 sequence: QEAA

H-Gln-Gly-OH = tested on: T11, H-Gln-Gly-OH
T11 sequence: QG

H-Gln-Tyr-Ala-OH = tested on: T12, H-Gln-Tyr-Ala-OH
T12 sequence: QYA

H-Gln-Trp-Ala-NH2 = tested on: T13, H-Gln-Trp-Ala-NH2
T13 sequence: QWA

H-Gln-Arg-Gly-Ile-NH2 = tested on: T14, H-Gln-Arg-Gly-Ile-NH2
T14 sequence: QRGI

H-Gln-Ser-Tyr-Phe-NH2 = tested on: T15, H-Gln-Ser-Tyr-Phe-NH2
T15 sequence: QSYF

[1] = tested on: T16, H-Gln-cyclo(Nε-Lys-Arg-Pro-Ala-Gly-Phe)
T16 sequence: QKRPAGF

[Gln^1]-FPP = tested on: T17, [Gln^1]-FPP
T17 sequence: QEP

H-Gln-Gln-OH = tested on: T18, H-Gln-Gln-OH
T18 sequence: QQ

H-Gln-Pro-Tyr-Phe-NH2 = tested on: T19, H-Gln-Pro-Tyr-Phe-NH2
T19 sequence: QPYF

H-Gln-Glu-Ala-Phe-NH2 = tested on: T20, H-Gln-Glu-Ala-Phe-NH2
T20 sequence: QEAF

H-Gln-Ala-OH = tested on: T21, H-Gln-Ala-OH
T21 sequence: QA

[2] = tested on: T22, H-Gln-Ala-Ala-Ser-Ala-Ala-NH2
T22 sequence: QAASAA

H-Gln-Ala-Ala-NH2 = tested on: T23, H-Gln-Ala-Ala-NH2
T23 sequence: QAA

[Gln^1]-Gastrin = tested on: T24, [Gln^1]-Gastrin
T24 sequence: QGPWLEEEEEAYGWMDF

H-Gln-Glu-OH = tested on: T25, H-Gln-Glu-OH
T25 sequence: QE

[3] = tested on: T26, H-Gln-Ala-Ala-Ala-Ala-NH2
T26 sequence: QAAAA

[4] = tested on: T27, H-βhomoGln-Phe-Lys-Arg-Leu-Ala-NH2
T27 sequence: QFKRLA

[Gln^3]-glucagon(3-29) = [Gln^3]-glucagon(3-29) (UniProt P01275)
Chain of [Gln^3]-glucagon(3-29) (P01275 whole entry, looked up, tested part not stated): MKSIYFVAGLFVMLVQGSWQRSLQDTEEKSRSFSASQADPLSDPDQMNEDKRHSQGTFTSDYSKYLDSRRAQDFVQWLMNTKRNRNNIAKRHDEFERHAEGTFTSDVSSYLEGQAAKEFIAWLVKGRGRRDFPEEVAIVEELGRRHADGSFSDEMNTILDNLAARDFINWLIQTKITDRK

H-Gln-Gln-Tyr-Phe-NH2 = tested on: T28, H-Gln-Gln-Tyr-Phe-NH2
T28 sequence: QQYF

H-Gln-Lys-Arg-Leu-NH2 = tested on: T29, H-Gln-Lys-Arg-Leu-NH2
T29 sequence: QKRL

H-Gln-Arg-Tyr-Phe-NH2 = tested on: T30, H-Gln-Arg-Tyr-Phe-NH2
T30 sequence: QRYF

[5] = tested on: T31, [Gln^5]-substance P(5-11)
T31 sequence: QQFFGLM

H-Gln-Glu-Tyr-Ala-NH2 = tested on: T32, H-Gln-Glu-Tyr-Ala-NH2
T32 sequence: QEYA

Substance: QC from papaya latex (Carica papaya glutaminyl cyclase)
- KM (H-Gln-Glu-Tyr-NH2): 103 µM
- KM (H-Gln-Gly-Pro-OH): 333 µM
- KM (H-Gln-Phe-Ala-NH2): 111 µM
- KM (H-Gln-Ala-NH2): 212 µM
- KM ([Gln^1]-GnRH): 169 µM
- KM (H-Gln-Glu-Tyr-Phe-NH2): 100 µM
- KM (H-Gln-His-Tyr-Phe-NH2): 92 µM
- KM (H-Gln-Asn-Gly-Ile-NH2): 153 µM
- KM (H-Gln-Glu-Asp-Leu-NH2): 107 µM
- KM (0.05 M Tricine-NaOH, pH 8.0) (H-Gln-Glu-Asp-Leu-NH2): 0.109 mM
- KM (0.05 M Tricine-NaOH, pH 8.0, 0.5 M KCl) (H-Gln-Glu-Asp-Leu-NH2): 0.094 mM
- KM (H-Gln-Glu-Ala-Ala-NH2): 102 µM
- KM (H-Gln-Gly-OH): 641 µM
- KM (H-Gln-Tyr-Ala-OH): 63 µM
- KM (H-Gln-Trp-Ala-NH2): 78 µM
- KM (0.05 M Tricine-NaOH, pH 8.0) (H-Gln-Trp-Ala-NH2): 0.079 mM
- KM (0.05 M Tricine-NaOH, pH 8.0, 0.5 M KCl) (H-Gln-Trp-Ala-NH2): 0.072 mM
- KM (H-Gln-Arg-Gly-Ile-NH2): 123 µM
- KM (0.05 M Tricine-NaOH, pH 8.0) (H-Gln-Arg-Gly-Ile-NH2): 0.106 mM
- KM (0.05 M Tricine-NaOH, pH 8.0, 0.5 M KCl) (H-Gln-Arg-Gly-Ile-NH2): 0.065 mM
- KM (H-Gln-Ser-Tyr-Phe-NH2): 135 µM
- KM [1]: KM-values of 240±14 µM and 133±5 µM for human and papaya QC, respectively
- KM ([Gln^1]-FPP): 232 µM
- KM (H-Gln-Gln-OH): 44 µM
- KM (H-Gln-Pro-Tyr-Phe-NH2): 149 µM
- KM (H-Gln-Glu-Ala-Phe-NH2): 81 µM
- KM (H-Gln-Ala-OH): 158 µM
- KM (0.05 M Tricine-NaOH, pH 8.0) (H-Gln-Ala-OH): 0.137 mM
- KM (0.05 M Tricine-NaOH, pH 8.0, 0.5 M KCl) (H-Gln-Ala-OH): 0.143 mM
- KM [2]: 216 µM
- KM (H-Gln-Ala-Ala-NH2): 164 µM
- KM ([Gln^1]-Gastrin): 34 µM
- KM ([Gln^1]-Neurotensin): 40 µM
- KM (H-Gln-Glu-OH): 106 µM
- KM (0.05 M Tricine-NaOH, pH 8.0) (H-Gln-Glu-OH): 0.098 mM
- KM (0.05 M Tricine-NaOH, pH 8.0, 0.5 M KCl) (H-Gln-Glu-OH): 0.094 mM
- KM [3]: 197 µM
- KM [4]: KM=3.1±0.3 mM
- substrate conversion (kcat/KM column) ([Gln^3]-glucagon(3-29)): *
- KM (H-Gln-Gln-Tyr-Phe-NH2): 45 µM
- KM (H-Gln-Lys-Arg-Leu-NH2): 118 µM
- KM (0.05 M Tricine-NaOH, pH 8.0) (H-Gln-Lys-Arg-Leu-NH2): 0.102 mM
- KM (0.05 M Tricine-NaOH, pH 8.0, 0.5 M KCl) (H-Gln-Lys-Arg-Leu-NH2): 0.053 mM
- KM (H-Gln-Arg-Tyr-Phe-NH2): 124 µM
- substrate conversion (kcat/KM column) [5]: *
- KM (H-Gln-Glu-Tyr-Ala-NH2): 113 µM
